For the assay, the target named is human plasma fibronectin, manually deposited single Fn fibers (human).

On to “integrin αvβ3 (from UniProt P06756 31-1048; P05106 27-788) (receptor)”, for which the ratio of ALP positive hMSCs on relaxed Fn fibers after 7 days with the function-blocking antibody against αvβ3 (clone 23C6), against no antibody was 30%. With “integrin α5β1 (from UniProt P08648 42-1049; P05556 21-798) (receptor)”, the ratio of ALP positive hMSCs on stretched Fn fibers after 7 days with the function-blocking antibody against α5β1 (clone JBS5), against no antibody was 31%.

The values above are taken from article PMC3741624.
